# In patent US10597433B2, “Peptides and combination of peptides for use in immunotherapy against small cell lung cancer and other cancers” (Immatics Biotechnologies GmbH, priority 2015, dated 2020):
# Molecular target: HLA-A*02:01 (Homo sapiens, UniProt P04439, D140Y/D185E/D98H/E176V/E277Q/G131W/G231S/I119V/I121R/I166T/I218V/L300P/L318F/N151K/N90K/P208A/P217A/Q86G/Q94H/R138H/R169H/T345S)
# Assay: MHC binding assay: UV-ligand exchange with ELISA detection of β2m of stabilized MHC complexes
# Conditions: binding to HLA-A*02:01
# Description: Candidate peptides for T cell based therapies according to the present invention were further tested for their MHC binding capacity (affinity). The individual peptide-MHC complexes were produced by UV-ligand exchange, where a UV-sensitive peptide is cleaved upon UV-irradiation, and exchanged with the peptide of interest as analyzed. Only peptide candidates that can effectively bind and stabilize the peptide-receptive MHC molecules prevent dissociation of the MHC complexes. To determine the yield of the exchange reaction, an ELISA was performed based on the detection of the light chain (β2m) of stabilized MHC complexes. The assay was performed as generally described in Rodenko et al. (Rodenko et al., 2006).
# 96 well MAXISorp plates (NUNC) were coated over night with 2 μg/ml streptavidin in PBS at room temperature, washed 4× and blocked for 1 h at 37° C. in 2% BSA containing blocking buffer. Refolded HLA-A*02:01/MLA-001 monomers served as standards, covering the range of 15-500 ng/ml. Peptide-MHC monomers of the UV-exchange reaction were diluted 100 fold in blocking buffer. Samples were incubated for 1 h at 37° C., washed four times, incubated with 2 μg/ml HRP conjugated anti-β2m for 1 h at 37° C., washed again and detected with TMB solution that is stopped with […]. Absorption was measured at 450 nm. Candidate peptides that show a high exchange yield (preferably higher than 50%, most preferred higher than 75%) are generally preferred for a generation and production of antibodies or fragments thereof, and/or T cell receptors or fragments thereof, as they show sufficient avidity to the MHC molecules and prevent dissociation of the MHC complexes.
row,"Peptide exchange (MHC class I binding score, peptide exchange yield)",Substance
1,+++ (≥50 = +++),101 (AMNSQILEV; listed as Homo sapiens) [compound 101]
2,+++ (≥50 = +++),19 (VLLTTAVEV; listed as Homo sapiens) [compound 19]
3,+++ (≥50 = +++),98 (ALVDHLNVGV; listed as Homo sapiens) [compound 98]
4,+++ (≥50 = +++),74 (FLDSLSPSV; listed as Homo sapiens) [compound 74]
5,+++ (≥50 = +++),42 (GLLEDERALQL; listed as Homo sapiens) [compound 42]
6,+++ (≥50 = +++),93 (ALRETVVEV; listed as Homo sapiens) [compound 93]
7,+++ (≥50 = +++),22 (LLPEKSWEI; listed as Homo sapiens) [compound 22]
8,++++ (≥75% = ++++),5 (SLQSLIISV; listed as Homo sapiens) [compound 5]
9,+++ (≥50 = +++),77 (AIIDGKIFCV; listed as Homo sapiens) [compound 77]
10,+++ (≥50 = +++),3 (VLAEIDPKQLV; listed as Homo sapiens) [compound 3]
11,++++ (≥75% = ++++),87 (LLQNNLPAV; listed as Homo sapiens) [compound 87]
12,+++ (≥50 = +++),23 (YQIDTVINL; listed as Homo sapiens) [compound 23]
13,+++ (≥50 = +++),41 (KAYQELLATV; listed as Homo sapiens) [compound 41]
14,+++ (≥50 = +++),81 (LLAEIGAVTLV; listed as Homo sapiens) [compound 81]
15,+++ (≥50 = +++),122 (SMMPDELLTSL; listed as Homo sapiens) [compound 122]
16,+++ (≥50 = +++),30 (KMLGLTVSL; listed as Homo sapiens) [compound 30]
17,++++ (≥75% = ++++),27 (SLDIITITV; listed as Homo sapiens) [compound 27]
18,++++ (≥75% = ++++),105 (SMYDKVLML; listed as Homo sapiens) [compound 105]
19,+++ (≥50 = +++),15 (SLLTAISEV; listed as Homo sapiens) [compound 15]
20,+++ (≥50 = +++),92 (YLQDYTDRV; listed as Homo sapiens) [compound 92]
21,+++ (≥50 = +++),56 (SLFSQMGSQYEL; listed as Homo sapiens) [compound 56]

row,"Peptide exchange (MHC class I binding score, peptide exchange yield)",Substance
1,+++ (≥50 = +++),118 (KLPSFLANV; listed as Homo sapiens) [compound 118]
2,++++ (≥75% = ++++),116 (ALLVRLQEV; listed as Homo sapiens) [compound 116]
3,+++ (≥50 = +++),83 (KLLEIDIDGV; listed as Homo sapiens) [compound 83]
4,++++ (≥75% = ++++),57 (VLIGDVLVAV; listed as Homo sapiens) [compound 57]
5,+++ (≥50 = +++),120 (SLAADIPRL; listed as Homo sapiens) [compound 120]
6,+++ (≥50 = +++),18 (ALGEISVSV; listed as Homo sapiens) [compound 18]
7,++++ (≥75% = ++++),28 (ILVSQLEQL; listed as Homo sapiens) [compound 28]
8,+++ (≥50 = +++),68 (FLFPVYPLI; listed as Homo sapiens) [compound 68]
9,+++ (≥50 = +++),24 (FLMEEVHMI; listed as Homo sapiens) [compound 24]
10,++++ (≥75% = ++++),35 (FMGDVFINV; listed as Homo sapiens) [compound 35]
11,+++ (≥50 = +++),84 (KMFENEFLL; listed as Homo sapiens) [compound 84]
12,++++ (≥75% = ++++),38 (GLISSLNEI; listed as Homo sapiens) [compound 38]
13,+++ (≥50 = +++),51 (ILDEAGVKYFL; listed as Homo sapiens) [compound 51]
14,+++ (≥50 = +++),65 (VMYDLITEL; listed as Homo sapiens) [compound 65]
15,++ (≥20% = ++),45 (SLSGEIILHSV; listed as Homo sapiens) [compound 45]
16,+++ (≥50 = +++),40 (GLLEVQVEV; listed as Homo sapiens) [compound 40]
17,++++ (≥75% = ++++),88 (TLHRETFYL; listed as Homo sapiens) [compound 88]
18,++++ (≥75% = ++++),55 (LLIADNPQL; listed as Homo sapiens) [compound 55]
19,++++ (≥75% = ++++),102 (ALFARPDLLLL; listed as Homo sapiens) [compound 102]
20,+++ (≥50 = +++),47 (GLLEALLKI; listed as Homo sapiens) [compound 47]
21,++ (≥20% = ++),9 (AAAPGEALHTA; listed as Homo sapiens) [compound 9]

row,"Peptide exchange (MHC class I binding score, peptide exchange yield)",Substance
1,+++ (≥50 = +++),111 (FLPEAPAEL; listed as Homo sapiens) [compound 111]
2,+ (≥10% = +),126 (AAASLIRLV; listed as Homo sapiens) [compound 126]
3,+++ (≥50 = +++),123 (KLDKNPNQV; listed as Homo sapiens) [compound 123]
4,++ (≥20% = ++),70 (TLLWKLVEV; listed as Homo sapiens) [compound 70]
5,+++ (≥50 = +++),32 (ALTSLELEL; listed as Homo sapiens) [compound 32]
6,+++ (≥50 = +++),63 (LLMSTENEL; listed as Homo sapiens) [compound 63]
7,++++ (≥75% = ++++),95 (ALYSKGILL; listed as Homo sapiens) [compound 95]
8,++++ (≥75% = ++++),52 (ILASFMLTGV; listed as Homo sapiens) [compound 52]
9,++++ (≥75% = ++++),103 (SLLEYQMLV; listed as Homo sapiens) [compound 103]
10,+++ (≥50 = +++),61 (YQAPYFLTV; listed as Homo sapiens) [compound 61]
11,+++ (≥50 = +++),12 (MLFEGLDLVSA; listed as Homo sapiens) [compound 12]
12,++++ (≥75% = ++++),96 (NLLKLIAEV; listed as Homo sapiens) [compound 96]
13,+++ (≥50 = +++),17 (SLMLVTVEL; listed as Homo sapiens) [compound 17]
14,+ (≥10% = +),100 (VADPETRTV; listed as Homo sapiens) [compound 100]
15,+++ (≥50 = +++),13 (FLTAFLVQI; listed as Homo sapiens) [compound 13]
16,+++ (≥50 = +++),64 (VLFHQLQEI; listed as Homo sapiens) [compound 64]
17,+++ (≥50 = +++),48 (SLIGLDLSSV; listed as Homo sapiens) [compound 48]
18,+++ (≥50 = +++),89 (IQHDLIFSL; listed as Homo sapiens) [compound 89]
19,+++ (≥50 = +++),21 (TMEEMIFEV; listed as Homo sapiens) [compound 21]
20,+++ (≥50 = +++),97 (ALLDGTVFEI; listed as Homo sapiens) [compound 97]
21,++++ (≥75% = ++++),26 (KMLDEAVFQV; listed as Homo sapiens) [compound 26]
